What was measured:
[1] = worm lifespan at 20 °C, N2 background; settings: glycan lost; control: N2 expressing SKN-1B/C::GFP
[2] = GFP scoring of intestinal nuclei, tBHP
[3] = survival on 9.125 mM tBHP, N2 background; settings: glycan lost; control: N2 expressing SKN-1B/C::GFP
[4] = GFP scoring of intestinal nuclei, gsk-3 RNAi; settings: glycan lost, control: SKN-1B/C::GFP worms
[5] = in vitro kinase assay, anti-phosphoserine blot; settings: glycan lost; control: wild type GST-SKN-1(321–623aa) co-expressed with HIS-OGT-1
[6] = worm lifespan at 20 °C, skn-1(zu67) background; settings: glycan lost; control: skn-1(zu67) expressing SKN-1B/C::GFP
[7] = survival on 9.125 mM tBHP, skn-1(zu67) background; settings: glycan lost; control: skn-1(zu67) expressing SKN-1B/C::GFP
[8] = GFP scoring of intestinal nuclei, oga-1 background; settings: glycan lost; control: SKN-1B/C::GFP in oga-1(ok1207)
[9] = SKN-1 expression in ASI neurons; settings: control: wild type worms
[10] = GFP scoring of intestinal nuclei, normal condition; settings: control: N2 expressing SKN-1B/C::GFP, untreated
[11] = anti-phospho-SKN-1(Ser483) blot; settings: glycan gained; control: wild type worms

B1: SKN-1: S470A/T493A (protein)
parent chain: MGGSSRRQRSTSATRRDDKRRRRQCFSSVADDEEETTSIYGVSSIFIWILATSSLILVISSPSSNTSIQSSSYDRITTKHLLDNISPTFKMYTDSNNRNFDEVNHQHQQEQDFNGQSKYDYPQFNRPMGLRWRDDQRMMEYFMSNGPVETVPVMPILTEHPPASPFGRGPSTERPTTSSRYEYSSPSLEDIDLIDVLWRSDIAGEKGTRQVAPADQYECDLQTLTEKSTVAPLTAEENARYEDLSKGFYNGFFESFNNNQYQQKHQQQQREQIKTPTLEHPTQKAELEDDLFDEDLAQLFEDVSREEGQLNQLFDNKQQHPVINNVSLSEGIVYNQANLTEMQEMRDSCNQVSISTIPTTSTAQPETLFNVTDSQTVEQWLPTEVVPNDVFPTSNYAYIGMQNDSLQAVVSNGQIDYDHSYQSTGQTPLSPLIIGSSGRQQQTQTSPGSVTVTATATQSLFDPYHSQRHSFSDCTTDSSSTCSRLSSESPRYTSESSTGTHESRFYGKLAPSSGSRYQRSSSPRSSQSSIKIARVVPLASGQRKRGRQSKDEQLASDNELPVSAFQISEMSLSELQQVLKNESLSEYQRQLIRKIRRRGKNKVAARTCRQRRTDRHDKMSHYI
In the case of B1, the “other: lifespan extension by transgene” value [1] is reported as “abolishes”, the localisation_or_trafficking ([2]; glycan lost, control: SKN-1B/C::GFP in N2, tBHP-treated) is reported as “decreases” and the “other: oxidative stress resistance conferred by transgene” value [3] is reported as “abolishes”. The localisation_or_trafficking [4] was “decreases”, the “other: phosphorylation by GSK-3” value [5] was “increases” and the “other: lifespan extension by transgene” value [6] was “abolishes”. The “other: oxidative stress resistance conferred by transgene” value [7] was “abolishes” and the localisation_or_trafficking [8] was “decreases”.

B2: SKN-1: ogt-1 loss (protein)
parent chain: MGGSSRRQRSTSATRRDDKRRRRQCFSSVADDEEETTSIYGVSSIFIWILATSSLILVISSPSSNTSIQSSSYDRITTKHLLDNISPTFKMYTDSNNRNFDEVNHQHQQEQDFNGQSKYDYPQFNRPMGLRWRDDQRMMEYFMSNGPVETVPVMPILTEHPPASPFGRGPSTERPTTSSRYEYSSPSLEDIDLIDVLWRSDIAGEKGTRQVAPADQYECDLQTLTEKSTVAPLTAEENARYEDLSKGFYNGFFESFNNNQYQQKHQQQQREQIKTPTLEHPTQKAELEDDLFDEDLAQLFEDVSREEGQLNQLFDNKQQHPVINNVSLSEGIVYNQANLTEMQEMRDSCNQVSISTIPTTSTAQPETLFNVTDSQTVEQWLPTEVVPNDVFPTSNYAYIGMQNDSLQAVVSNGQIDYDHSYQSTGQTPLSPLIIGSSGRQQQTQTSPGSVTVTATATQSLFDPYHSQRHSFSDCTTDSSSTCSRLSSESPRYTSESSTGTHESRFYGKLAPSSGSRYQRSSSPRSSQSSIKIARVVPLASGQRKRGRQSKDEQLASDNELPVSAFQISEMSLSELQQVLKNESLSEYQRQLIRKIRRRGKNKVAARTCRQRRTDRHDKMSHYI
For B2, the expression_or_secretion ([9]; glycan lost) was “no change”.

B3: SKN-1: without HIS-OGT-1 (protein)
parent chain: MGGSSRRQRSTSATRRDDKRRRRQCFSSVADDEEETTSIYGVSSIFIWILATSSLILVISSPSSNTSIQSSSYDRITTKHLLDNISPTFKMYTDSNNRNFDEVNHQHQQEQDFNGQSKYDYPQFNRPMGLRWRDDQRMMEYFMSNGPVETVPVMPILTEHPPASPFGRGPSTERPTTSSRYEYSSPSLEDIDLIDVLWRSDIAGEKGTRQVAPADQYECDLQTLTEKSTVAPLTAEENARYEDLSKGFYNGFFESFNNNQYQQKHQQQQREQIKTPTLEHPTQKAELEDDLFDEDLAQLFEDVSREEGQLNQLFDNKQQHPVINNVSLSEGIVYNQANLTEMQEMRDSCNQVSISTIPTTSTAQPETLFNVTDSQTVEQWLPTEVVPNDVFPTSNYAYIGMQNDSLQAVVSNGQIDYDHSYQSTGQTPLSPLIIGSSGRQQQTQTSPGSVTVTATATQSLFDPYHSQRHSFSDCTTDSSSTCSRLSSESPRYTSESSTGTHESRFYGKLAPSSGSRYQRSSSPRSSQSSIKIARVVPLASGQRKRGRQSKDEQLASDNELPVSAFQISEMSLSELQQVLKNESLSEYQRQLIRKIRRRGKNKVAARTCRQRRTDRHDKMSHYI
In the case of B3, the “other: phosphorylation by GSK-3” value [5] is reported as “increases”.

B4: SKN-1: ogt-1(ok1474) (protein)
parent chain: MGGSSRRQRSTSATRRDDKRRRRQCFSSVADDEEETTSIYGVSSIFIWILATSSLILVISSPSSNTSIQSSSYDRITTKHLLDNISPTFKMYTDSNNRNFDEVNHQHQQEQDFNGQSKYDYPQFNRPMGLRWRDDQRMMEYFMSNGPVETVPVMPILTEHPPASPFGRGPSTERPTTSSRYEYSSPSLEDIDLIDVLWRSDIAGEKGTRQVAPADQYECDLQTLTEKSTVAPLTAEENARYEDLSKGFYNGFFESFNNNQYQQKHQQQQREQIKTPTLEHPTQKAELEDDLFDEDLAQLFEDVSREEGQLNQLFDNKQQHPVINNVSLSEGIVYNQANLTEMQEMRDSCNQVSISTIPTTSTAQPETLFNVTDSQTVEQWLPTEVVPNDVFPTSNYAYIGMQNDSLQAVVSNGQIDYDHSYQSTGQTPLSPLIIGSSGRQQQTQTSPGSVTVTATATQSLFDPYHSQRHSFSDCTTDSSSTCSRLSSESPRYTSESSTGTHESRFYGKLAPSSGSRYQRSSSPRSSQSSIKIARVVPLASGQRKRGRQSKDEQLASDNELPVSAFQISEMSLSELQQVLKNESLSEYQRQLIRKIRRRGKNKVAARTCRQRRTDRHDKMSHYI
For B4, the localisation_or_trafficking ([2]; glycan lost, control: N2 expressing SKN-1B/C::GFP, tBHP-treated) was “decreases” and the localisation_or_trafficking ([10]; glycan lost) was “no change”.

B5: SKN-1: T493A (protein)
parent chain: MGGSSRRQRSTSATRRDDKRRRRQCFSSVADDEEETTSIYGVSSIFIWILATSSLILVISSPSSNTSIQSSSYDRITTKHLLDNISPTFKMYTDSNNRNFDEVNHQHQQEQDFNGQSKYDYPQFNRPMGLRWRDDQRMMEYFMSNGPVETVPVMPILTEHPPASPFGRGPSTERPTTSSRYEYSSPSLEDIDLIDVLWRSDIAGEKGTRQVAPADQYECDLQTLTEKSTVAPLTAEENARYEDLSKGFYNGFFESFNNNQYQQKHQQQQREQIKTPTLEHPTQKAELEDDLFDEDLAQLFEDVSREEGQLNQLFDNKQQHPVINNVSLSEGIVYNQANLTEMQEMRDSCNQVSISTIPTTSTAQPETLFNVTDSQTVEQWLPTEVVPNDVFPTSNYAYIGMQNDSLQAVVSNGQIDYDHSYQSTGQTPLSPLIIGSSGRQQQTQTSPGSVTVTATATQSLFDPYHSQRHSFSDCTTDSSSTCSRLSSESPRYTSESSTGTHESRFYGKLAPSSGSRYQRSSSPRSSQSSIKIARVVPLASGQRKRGRQSKDEQLASDNELPVSAFQISEMSLSELQQVLKNESLSEYQRQLIRKIRRRGKNKVAARTCRQRRTDRHDKMSHYI
For B5, the “other: phosphorylation by GSK-3” value [5] was “increases”.

B6: SKN-1: oga-1(ok1207) (protein)
parent chain: MGGSSRRQRSTSATRRDDKRRRRQCFSSVADDEEETTSIYGVSSIFIWILATSSLILVISSPSSNTSIQSSSYDRITTKHLLDNISPTFKMYTDSNNRNFDEVNHQHQQEQDFNGQSKYDYPQFNRPMGLRWRDDQRMMEYFMSNGPVETVPVMPILTEHPPASPFGRGPSTERPTTSSRYEYSSPSLEDIDLIDVLWRSDIAGEKGTRQVAPADQYECDLQTLTEKSTVAPLTAEENARYEDLSKGFYNGFFESFNNNQYQQKHQQQQREQIKTPTLEHPTQKAELEDDLFDEDLAQLFEDVSREEGQLNQLFDNKQQHPVINNVSLSEGIVYNQANLTEMQEMRDSCNQVSISTIPTTSTAQPETLFNVTDSQTVEQWLPTEVVPNDVFPTSNYAYIGMQNDSLQAVVSNGQIDYDHSYQSTGQTPLSPLIIGSSGRQQQTQTSPGSVTVTATATQSLFDPYHSQRHSFSDCTTDSSSTCSRLSSESPRYTSESSTGTHESRFYGKLAPSSGSRYQRSSSPRSSQSSIKIARVVPLASGQRKRGRQSKDEQLASDNELPVSAFQISEMSLSELQQVLKNESLSEYQRQLIRKIRRRGKNKVAARTCRQRRTDRHDKMSHYI
For B6, the localisation_or_trafficking ([2]; glycan gained, control: N2 expressing SKN-1B/C::GFP, tBHP-treated) was “increases” and the localisation_or_trafficking ([10]; glycan gained) was “increases”.

B7: SKN-1: oga-1 loss (protein)
parent chain: MGGSSRRQRSTSATRRDDKRRRRQCFSSVADDEEETTSIYGVSSIFIWILATSSLILVISSPSSNTSIQSSSYDRITTKHLLDNISPTFKMYTDSNNRNFDEVNHQHQQEQDFNGQSKYDYPQFNRPMGLRWRDDQRMMEYFMSNGPVETVPVMPILTEHPPASPFGRGPSTERPTTSSRYEYSSPSLEDIDLIDVLWRSDIAGEKGTRQVAPADQYECDLQTLTEKSTVAPLTAEENARYEDLSKGFYNGFFESFNNNQYQQKHQQQQREQIKTPTLEHPTQKAELEDDLFDEDLAQLFEDVSREEGQLNQLFDNKQQHPVINNVSLSEGIVYNQANLTEMQEMRDSCNQVSISTIPTTSTAQPETLFNVTDSQTVEQWLPTEVVPNDVFPTSNYAYIGMQNDSLQAVVSNGQIDYDHSYQSTGQTPLSPLIIGSSGRQQQTQTSPGSVTVTATATQSLFDPYHSQRHSFSDCTTDSSSTCSRLSSESPRYTSESSTGTHESRFYGKLAPSSGSRYQRSSSPRSSQSSIKIARVVPLASGQRKRGRQSKDEQLASDNELPVSAFQISEMSLSELQQVLKNESLSEYQRQLIRKIRRRGKNKVAARTCRQRRTDRHDKMSHYI
With B7 the expression_or_secretion ([9]; glycan gained) was “no change” and the “other: Ser483 phosphorylation” value [11] was “decreases”.
